Changes are numbered by the printed parent chain.

The record followed here is patent US20020055173, “Method for preparing adenovirus vectors, vectors so prepared, and uses thereof” (published 2002).

Data set [1] has as its target T1, Sp1 (UniProt P08047 P08047:2-785). As to the kind of experiment: footprint; one Sp1 site (-18GC). Particulars: tags: Promega; label: 5' end label in luciferase coding region.
The target of data set [2] is T2, MAZ (UniProt P56270 P56270:1-477).
T2 sequence: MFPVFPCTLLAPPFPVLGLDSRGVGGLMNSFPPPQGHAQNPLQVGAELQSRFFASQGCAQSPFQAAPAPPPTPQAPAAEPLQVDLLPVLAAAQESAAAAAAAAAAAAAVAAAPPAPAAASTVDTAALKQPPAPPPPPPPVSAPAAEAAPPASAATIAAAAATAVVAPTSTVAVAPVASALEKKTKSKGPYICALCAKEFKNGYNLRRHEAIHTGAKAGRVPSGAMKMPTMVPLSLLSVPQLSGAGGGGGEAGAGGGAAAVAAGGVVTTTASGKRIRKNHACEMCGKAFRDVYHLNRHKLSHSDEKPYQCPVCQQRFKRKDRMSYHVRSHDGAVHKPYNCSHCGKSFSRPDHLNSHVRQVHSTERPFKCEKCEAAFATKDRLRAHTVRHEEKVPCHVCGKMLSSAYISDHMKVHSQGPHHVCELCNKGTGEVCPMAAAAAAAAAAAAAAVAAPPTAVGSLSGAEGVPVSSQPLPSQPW
Description: footprint; two MAZ sites. The conditions noted are these: tags: prepared as in Parks and Shenk 1996; label: 5' end label in luciferase coding region.

Data set [3] deals with T1, Sp1. As to the kind of experiment: footprint; interaction completely blocked. The conditions noted are these: tags: Promega; label: 5' end label in luciferase coding region.
The target of data set [4] is T1, Sp1. Description: footprint; Sp1 footprint not altered. Particulars: tags: Promega; label: 5' end label in luciferase coding region.
In data set [5] the target is T1, Sp1. As to the kind of experiment: footprint; interaction substantially blocked. Particulars: tags: Promega; label: 5' end label in luciferase coding region.
For data set [6], the target named is T2, MAZ. As to the kind of experiment: footprint; interaction substantially blocked. Particulars: tags: prepared as in Parks and Shenk 1996; label: 5' end label in luciferase coding region.

T1 sequence (P08047 2-785, one chain of several): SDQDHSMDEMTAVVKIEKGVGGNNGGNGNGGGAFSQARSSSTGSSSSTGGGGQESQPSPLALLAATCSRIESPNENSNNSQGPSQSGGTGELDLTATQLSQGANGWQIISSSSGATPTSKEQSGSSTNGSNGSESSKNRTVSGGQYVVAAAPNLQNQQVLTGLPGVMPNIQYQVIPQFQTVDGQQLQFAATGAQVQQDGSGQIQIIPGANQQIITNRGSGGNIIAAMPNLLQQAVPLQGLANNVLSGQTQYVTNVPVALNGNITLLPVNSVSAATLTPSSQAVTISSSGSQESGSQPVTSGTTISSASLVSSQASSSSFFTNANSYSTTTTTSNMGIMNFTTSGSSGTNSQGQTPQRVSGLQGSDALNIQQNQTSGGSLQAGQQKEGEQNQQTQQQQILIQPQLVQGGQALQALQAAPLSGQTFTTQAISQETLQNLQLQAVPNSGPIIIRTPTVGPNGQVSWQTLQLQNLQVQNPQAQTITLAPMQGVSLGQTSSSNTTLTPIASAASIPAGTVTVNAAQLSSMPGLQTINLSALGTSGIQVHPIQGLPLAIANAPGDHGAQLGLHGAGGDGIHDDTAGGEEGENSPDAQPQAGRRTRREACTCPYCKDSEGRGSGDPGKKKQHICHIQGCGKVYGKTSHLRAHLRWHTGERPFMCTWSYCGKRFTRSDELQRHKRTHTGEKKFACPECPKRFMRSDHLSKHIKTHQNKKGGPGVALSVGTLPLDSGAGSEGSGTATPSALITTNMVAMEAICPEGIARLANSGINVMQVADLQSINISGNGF

B1: minimal MLP wild type (dsDNA)
DNA 1: TGAAGGGGGGCTATAAAAGGGGGTGGGGGCGCGTTCGTCCTCACTCTCTTCC
DNA 2: GGAAGAGAGTGAGGACGAACGCGCCCCCACCCCCTTTTATAGCCCCCCTTCA
On to B1, for which the binding result in the data set with Sp1 [1] and with MAZ [2] was “binds” in each case.

B2: minimal MLP M1 (-18GC mutant) (dsDNA)
DNA 1: B1 DNA 1 with G20T, G22T, G26T, G28T, C30T, C32T
DNA 2: B1 DNA 2 with G21A, G23A, C25A, C27A, C31A, C33A
In the case of B2, the binding result in the data set with Sp1 [3] was “no binding”.

B3: minimal MLP M2 (-36GC mutant) (dsDNA)
DNA 1: B1 DNA 1 with A3T, A4T, G6T, G7T, G9T, G10T
DNA 2: B1 DNA 2 with C43A, C44A, C46A, C47A, T49A, T50A
For B3, in the data set with Sp1 [4], the binding result is “binds”.

B4: minimal MLP M3 (-18GC and -36GC mutant) (dsDNA)
DNA 1: TGTTGTTGTTCTATAAAAGTGTGTGTGTGTGCGTTCGTCCTCACTCTCTTCC
DNA 2: GGAAGAGAGTGAGGACGAACGCACACACACACACTTTTATAGAACAACAACA
For B4, the binding result with Sp1 [5] and in the data set with MAZ [6] was “no binding” each time.
